In PMC11006472:

Target: human ER membrane protein complex (EMC) with EMC2-3xFlag and EMC5-Twin-Strep (human (endogenous in Expi293F) | human) (UniProt Q8N766)
Test: cryo-EM structure; VDAC1-bound class of the purified human EMC sample in digitonin (complex co-purified from cells), single-particle cryo-EM, 3.32 Å

Sequence of UniProt Q8N766 (Q8N766 whole entry, looked up, one chain of several): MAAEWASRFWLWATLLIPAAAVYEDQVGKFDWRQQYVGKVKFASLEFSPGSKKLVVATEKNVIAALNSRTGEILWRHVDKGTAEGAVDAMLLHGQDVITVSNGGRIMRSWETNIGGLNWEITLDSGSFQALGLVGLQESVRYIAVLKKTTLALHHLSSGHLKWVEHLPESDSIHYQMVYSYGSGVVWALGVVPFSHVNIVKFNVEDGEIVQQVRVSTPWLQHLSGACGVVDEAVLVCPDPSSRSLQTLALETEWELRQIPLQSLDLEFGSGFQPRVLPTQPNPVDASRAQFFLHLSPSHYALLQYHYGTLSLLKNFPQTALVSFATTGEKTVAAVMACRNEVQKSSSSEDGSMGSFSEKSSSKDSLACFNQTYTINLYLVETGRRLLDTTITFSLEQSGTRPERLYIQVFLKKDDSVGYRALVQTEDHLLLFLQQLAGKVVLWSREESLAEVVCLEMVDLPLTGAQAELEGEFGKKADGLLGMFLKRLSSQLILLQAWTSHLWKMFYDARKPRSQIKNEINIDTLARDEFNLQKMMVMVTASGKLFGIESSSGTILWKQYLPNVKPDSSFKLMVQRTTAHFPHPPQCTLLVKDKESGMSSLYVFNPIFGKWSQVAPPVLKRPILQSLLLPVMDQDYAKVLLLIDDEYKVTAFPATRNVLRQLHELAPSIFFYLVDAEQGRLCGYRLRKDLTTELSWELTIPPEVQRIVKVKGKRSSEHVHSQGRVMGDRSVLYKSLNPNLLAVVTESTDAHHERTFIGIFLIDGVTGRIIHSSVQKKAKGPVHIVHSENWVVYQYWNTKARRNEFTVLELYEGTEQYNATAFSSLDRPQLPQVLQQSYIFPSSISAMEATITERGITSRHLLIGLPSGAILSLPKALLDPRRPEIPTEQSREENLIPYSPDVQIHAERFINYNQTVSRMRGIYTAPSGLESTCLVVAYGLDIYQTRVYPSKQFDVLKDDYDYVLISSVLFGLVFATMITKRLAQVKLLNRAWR

“voltage-dependent anion channel 1 (VDAC1), endogenous (from UniProt P21796 1-283) (natural protein)” was tested, and the stoichiometry N was 1.
